# Ends that are not written are not given here.
# T1: wild-type soluble CD40L fragment (residues 118-261) with no N-terminal KGD motif (human, UniProt P29965 118-261)
# T1 construct: also called WT CD40L; WT sCD40L; not shown: His tag from the PET28a vector (Ni-NTA purification, anti-His detection)
# T1 sequence: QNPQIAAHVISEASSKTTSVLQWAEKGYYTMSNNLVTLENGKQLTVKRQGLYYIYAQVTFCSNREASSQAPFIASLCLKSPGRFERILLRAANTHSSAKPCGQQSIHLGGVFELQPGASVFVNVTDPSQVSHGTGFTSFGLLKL
# Target: T2, CD40 fragment (residues 21-144) fused to GST (UniProt P25942 21-144)
# T2 construct: range 21-144; Made in E. coli BL21 from PGEX2T (BamHI/EcoRI), purified on glutathione-sepharose; also called CD40 fused to GST; not shown: glutathione S-transferase encoded by the PGEX2T vector
# Assay: ELISA-type CD40 binding (as for FIG. 11)
# T2 sequence (P25942 21-144): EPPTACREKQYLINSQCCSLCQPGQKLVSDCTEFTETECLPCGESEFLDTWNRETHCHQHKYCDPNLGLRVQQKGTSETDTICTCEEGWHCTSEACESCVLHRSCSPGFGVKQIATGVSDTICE
row,Binder,binding result
1,"CD40L HIGMS1 mutant H224Y (soluble fragment) (ligand, not shown: His tag from the PET28a vector (Ni-NTA purification, anti-His detection)) QNPQIAAHVISEASSKTTSVLQWAEKGYYTMSNNLVTLENGKQLTVKRQGLYYIYAQVTFCSNREASSQAPFIASLCLKSPGRFERILLRAANTHSSAKPCGQQSIYLGGVFELQPGASVFVNVTDPSQVSHGTGFTSFGLLKL",binds
2,"CD40L HIGMS1 mutant Q174R (soluble fragment) (ligand, not shown: His tag from the PET28a vector (Ni-NTA purification, anti-His detection)) QNPQIAAHVISEASSKTTSVLQWAEKGYYTMSNNLVTLENGKQLTVKRQGLYYIYARVTFCSNREASSQAPFIASLCLKSPGRFERILLRAANTHSSAKPCGQQSIHLGGVFELQPGASVFVNVTDPSQVSHGTGFTSFGLLKL",binds
3,"CD40L HIGMS1 mutant L258S (soluble fragment) (ligand, not shown: His tag from the PET28a vector (Ni-NTA purification, anti-His detection)) QNPQIAAHVISEASSKTTSVLQWAEKGYYTMSNNLVTLENGKQLTVKRQGLYYIYAQVTFCSNREASSQAPFIASLCLKSPGRFERILLRAANTHSSAKPCGQQSIHLGGVFELQPGASVFVNVTDPSQVSHGTGFTSFGSLKL",binds

# More lines, now with the values ahead:
row,binding result,Binder
1,binds,"CD40L HIGMS1 mutant G226A (soluble fragment) (ligand, not shown: His tag from the PET28a vector (Ni-NTA purification, anti-His detection)) QNPQIAAHVISEASSKTTSVLQWAEKGYYTMSNNLVTLENGKQLTVKRQGLYYIYAQVTFCSNREASSQAPFIASLCLKSPGRFERILLRAANTHSSAKPCGQQSIHLAGVFELQPGASVFVNVTDPSQVSHGTGFTSFGLLKL"
2,binds,"CD40L HIGMS1 mutant G227V (soluble fragment) (ligand, not shown: His tag from the PET28a vector (Ni-NTA purification, anti-His detection)) QNPQIAAHVISEASSKTTSVLQWAEKGYYTMSNNLVTLENGKQLTVKRQGLYYIYAQVTFCSNREASSQAPFIASLCLKSPGRFERILLRAANTHSSAKPCGQQSIHLGVVFELQPGASVFVNVTDPSQVSHGTGFTSFGLLKL"
3,binds,"CD40L HIGMS1 mutant T176I (soluble fragment) (ligand, Printed as T1761, read as T176I; also called T1761 (so in the source); not shown: His tag from the PET28a vector (Ni-NTA purification, anti-His detection)) QNPQIAAHVISEASSKTTSVLQWAEKGYYTMSNNLVTLENGKQLTVKRQGLYYIYAQVIFCSNREASSQAPFIASLCLKSPGRFERILLRAANTHSSAKPCGQQSIHLGGVFELQPGASVFVNVTDPSQVSHGTGFTSFGLLKL"

# Target: T2, CD40 fragment (residues 21-144) fused …
# Assay: ELISA-type: immobilized CD40 (21-144)-GST, CD40L mutant in solution
row,binding result,Binder
1,binds,"CD40L H224E/G226E mutant (soluble fragment) (ligand, Mutant of the soluble CD40L fragment; also called dnCD40L; CD40L decoy; not shown: His tag from the PET28a vector (Ni-NTA purification, anti-His detection)) QNPQIAAHVISEASSKTTSVLQWAEKGYYTMSNNLVTLENGKQLTVKRQGLYYIYAQVTFCSNREASSQAPFIASLCLKSPGRFERILLRAANTHSSAKPCGQQSIELEGVFELQPGASVFVNVTDPSQVSHGTGFTSFGLLKL"
2,binds,"CD40L G252E mutant (soluble fragment) (ligand, Mutant of the soluble CD40L fragment; also called dnCD40L; CD40L decoy; not shown: His tag from the PET28a vector (Ni-NTA purification, anti-His detection)) QNPQIAAHVISEASSKTTSVLQWAEKGYYTMSNNLVTLENGKQLTVKRQGLYYIYAQVTFCSNREASSQAPFIASLCLKSPGRFERILLRAANTHSSAKPCGQQSIHLGGVFELQPGASVFVNVTDPSQVSHGTEFTSFGLLKL"
3,binds,"CD40L Y170E mutant (soluble fragment) (ligand, Mutant of the soluble CD40L fragment; also called Y170 to E; dnCD40L; not shown: His tag from the PET28a vector (Ni-NTA purification, anti-His detection)) QNPQIAAHVISEASSKTTSVLQWAEKGYYTMSNNLVTLENGKQLTVKRQGLYEIYAQVTFCSNREASSQAPFIASLCLKSPGRFERILLRAANTHSSAKPCGQQSIHLGGVFELQPGASVFVNVTDPSQVSHGTGFTSFGLLKL"

# Target: T1, wild-type soluble CD40L fragment …
# Assay: ELISA-type: immobilized CD40L, site 2 peptide fused to GST, bound GST measured
row,binding result,Binder
1,binds,"QPNDGQSHVGSDNHYSASTTM (also: fused to GST, order not given here, also called peptide from site 2 of β3; not shown: glutathione S-transferase fusion partner) [site 2 peptide of integrin β3 fused to GST]"
